Measurements from patent publication US12427188B2, “Pyocyanine demethylases and related phenazine degrading agents compositions, methods and systems for interfering with viability of bacteria” (priority 2020, dated 2025).
Positions count from the first letter of the chain named. Names and notes keep the numbering of the source.

B1: PodA8: Designed PodA41-162 variant: A53N, I73R, A87V, T91V, A129V (protein)
chain: VTMTLDVKNDQVNKHDFGKPGMDVGDMDIFSDRLSVDGKQVGYDGGVCFFVNVTPDNPMTYCELTIHLDAGEIFARSLTPHTLAPFTMVITGGTGEYANSKGELTVSGVATPDEKYELKLTK
B2: PodA9: Designed PodA41-162 variant: I73K, A87V, T91V, A129V, K141T (protein)
chain: B1 chain with N13A, R33K, K101T
B3: PodA2: Designed PodA41-162 variant: I73T, A87V, T91V, M99V, A129V (protein)
chain: B1 chain with N13A, R33T, M59V
B4: PodA6: Designed PodA41-162 variant: I73R, A87V, T91V, M99V, A129T (protein)
chain: B1 chain with N13A, M59V, V89T
B5: PodA5: Designed PodA41-162 variant: I73L, A87I, M99V, A129V, K141T (protein)
chain: B1 chain with N13A, R33L, V47I, V51T, M59V, K101T
B6: PodA7: Designed PodA41-162 variant: I73L, A87I, T91V, M99T, A129V (protein)
chain: B1 chain with N13A, R33L, V47I, M59T
B7: PodA3: Designed PodA41-162 variant: I73K, A87V, T91V, M99V, A129V (protein)
chain: B1 chain with N13A, R33K, M59V
B8: PodA^D72A: PodA active site variant D72A (protein)
chain: MTGKTKPAIIGGVAITALAAAGLGVWLFTDGRGGRSTTEPVTMTLDVKNDQVAKHDFGKPGMDVGDMDIFSAILSVDGKQVGYDGGACFFTNVTPDNPMTYCELTIHLDAGEIFARSLTPHTLAPFTMAITGGTGEYANSKGELTVSGVATPDEKYELKLTK
B9: PodA^Y156A: PodA active site variant Y156A (protein)
chain: B8 chain with A72D, Y156A
B10: PodA^H121K: PodA active site variant H121K (protein)
chain: B8 chain with A72D, H121K
B11: PodA^D68A: PodA variant inhibiting product release, D68A (protein)
chain: B8 chain with D68A, A72D
B12: PodA^H121R: PodA active site variant H121R (protein)
chain: B8 chain with A72D, H121R
B13: PodA^H121A: PodA active site variant H121A (protein)
chain: B8 chain with A72D, H121A
B14: PodA^Y156F: PodA active site variant Y156F (protein)
chain: B8 chain with A72D, Y156F
B15: PodA^E154A: PodA active site variant E154A, inactive (protein)
chain: B8 chain with A72D, E154A
B16: WT PodA30-162: Truncated wild-type pyocyanin demethylase PodA, residues 30-162, SEQ ID NO: 2 (protein)
chain: MDGRGGRSTTEPVTMTLDVKNDQVAKHDFGKPGMDVGDMDIFSDILSVDGKQVGYDGGACFFTNVTPDNPMTYCELTIHLDAGEIFARSLTPHTLAPFTMAITGGTGEYANSKGELTVSGVATPDEKYELKLTKAENLYFQ
modifications: Sybthetic Polypeptide
B17: PodA1030-162: PodA10 of SEQ ID NO: 2: A24N, I44T, A58V, M70V, A100T (protein)
chain: B16 chain with A25N, I45T, A59V, M71V, A101T
modifications: Sybthetic Polypeptide
B18: PodA830-162: PodA8 of SEQ ID NO: 2: A24N, I44R, A58V, T62V, A100V (protein)
chain: B16 chain with A25N, I45R, A59V, T63V, A101V
modifications: Sybthetic Polypeptide

Assays:
[1] = Continuous spectrophotometric PYO demethylation assay (specific activity and kinetics of PodA); assay type: biochemical; details: for catalytic efficiency compared with PodA^WT: Michaelis-Menten kinetics, 3 μM protein
Protocol: Specific activity and kinetics of PodA. To determine specific activity and kinetic parameters of PodA for PYO, a continuous spectrophotometric assay monitoring the absorbance of PYO (690 nm) was utilized. Briefly, assays were performed at 25° C. in 100 μL reaction volumes in 96-well plates and reactions were monitored at 690 nm over 10 min. Reaction mixtures contained Phosphate buffer (50 mM, pH 6.0), ethylene glycol (1%, v/v), protein (3 μM) and substrate (for specific activity, 100 μM, for kinetics, varying). Data were acquired using the SpectraMax® M3 Microplate Reader (Molecular Devices) using the Soft Max Pro software every 10 s over 10 min. Path lengths for each well were calculated using Soft Max Pro endpoint readings and slopes were corrected for path lengths of 1 cm.
Specific activity was calculated from the slope of the linear range of (ΔOD690 min^−1) using Beer's Law (A=εcl) with a path length of 1 cm and the molar extinction coefficient of PYO (4,130 M^−1 cm^−1). Equation was solved for c, giving specific activity in nmol min^−1 mg^−1 of PodA. For kinetic parameters, graphs of initial velocity (μM s^−1) versus substrate concentration (μM) were plotted using Prism v8 (GraphPad). The Michaelis-Menten kinetics model was used to determine Km and Vmax. The turnover number (kcat) was determined using the following equation: Vmax=kcat[E], where [E] was the concentration of PodA added. All spectrophotometric assays mentioned above were completed thrice, each in technical triplicate with a representative data set shown. Error bars represent standard deviation as calculated by Prism v8 (GraphPad). Standard deviation for kcat and Kcat KM^−1 was calculated using standard formulas for propagation of error.

[2] = Protein yield of PodA variants purified from inclusion bodies of overexpression culture; details: purified from inclusion bodies, per L of E. coli overexpression culture
Protocol: Protein overproduction and purification of soluble and inclusion body fractions. Plasmids coding for proteins of interest were transformed into E. coli BL21 […]. […]. Cultures were grown at 37° C. with shaking to an optical density of 0.4 (OD600 nm) and plasmid expression was induced with IPTG (50 μM) and shaken overnight at 16° C. Cells were harvested by centrifugation at 5,000×g for 10 min in a Beckman Coulter Avanti J-20 XOI refrigerated centrifuge using a JLA-8.1000 rotor at 4° C. Cell pellets were stored at −80° C. until used.
For purification of PodA from inclusion bodies, the pellets remaining following lysis and centrifugation at 40,000×g were resuspended in 20 mL of detergent buffer [50 mM HEPES (pH 7.5) and 1% Triton-X (v/v)] using a Bio-gen PRO200 cell homogenizer (PRO Scientific). Sample was spun for 15 min at 40,000×g at 4° C. in a Beckman Coulter Avanti centrifuge with a JA-25.50 rotor. Supernatant was discarded and the remaining cell pellet was resuspended in 5 mL of buffer [50 mM HEPES (pH 7.5), 500 mM NaCl] using a cell homogenizer, supplemented with lysozyme (200 μg mL^−1), and incubated for 10 min. Volume was increased to 20 mL with HEPES (50 mM, pH 7) and sample was spun for 40,000×g at 4° C. for 15 min. Supernatant was discarded and pellet was homogenized in 10 mL of denaturing buffer 50 mM HEPES (pH 7.5), 500 mM NaCl, and 8M urea) and incubating rocking overnight. The sample was spun at for 40,000×g at 25° C. for 30 min and supernatant was incubated with 1 mL HisPur Ni-NTA resin (Thermo Fisher Scientific) on a rocking platform for 10 min. Beads were allowed to settle without shaking, supernatant was discarded, and resin was pipetted into glass gravity columns. Resin was washed with 15 mL of denaturing buffer, followed by an elution with denaturing buffer supplemented with imidazole (500 mM). Fractions were analyzed by SDS-PAGE and those containing protein were combined into SnakeSkin 3.5 K MWCO dialysis tubing (Thermo Fisher Scientific). Urea was slowly dialyzed out in HEPES (50 mM, pH 7.5) and NaCl (500 mM) by lowing urea concentrations by 1 M increments. Each step was dialyzed at RT for 30 min. Protein was dialyzed in HEPES (50 mM, pH 7.5), NaCl (500 mM), and imidazole (20 mM) overnight at 4° C. The following day, protein was cleaved for 3 h at 25° C. with TEV protease (1:50 mg:mg ratio of TEV to PodA). The sample was applied to a HisPur gravity column and cleaved protein in the flow thru was confirmed by SDS-PAGE. Cleaved PodA protein was then dialyzed for storage for 3 h at 4° C. in HEPES (50 mM pH 7.5), NaCl (250 mM) and finally in HEPES (50 mM, pH 7.5), NaCl (100 mM), and glycerol (20%, v/v). Protein concentration was established on a NanoDrop™ using the extinction coefficient and MW of each protein. Protein was drop frozen in LN2 and stored at −80° C. until use.

[3] = pH 6, 1% ethylene glycol, PodA 3 μM, substrate PYO

Molecule | Yield [2] | Activity of active site variants compared to controls ([1]; PodA 3 μM, PYO varying) | other results
B1 | 2.1 mg/L^−1 |  | catalytic efficiency compared with PodA^WT [1]: no change in catalytic efficiency; PYO demethylation activity relative to wild type ([1]; PYO 50 μM, PodA variants 3 μM): wild-type activity was maintained
B2 | 1.28 mg/L^−1 |  | 
B3 | 16.1 mg/L^−1 |  | 
B4 | 4.4 mg/L^−1 |  | 
B5 | 9.9 mg/L^−1 |  | 
B6 | 4.1 mg/L^−1 |  | 
B7 | 9.45 mg/L^−1 |  | 
B8 |  | did not have measurable activity | 
B9 |  | did not have measurable activity | 
B10 |  | did not have measurable activity | 
B11 |  |  | Michaelis-Menten behaviour ([1]; PodA 3 μM, PYO varying): maintained similar Michaelis-Menten trends for concentrations of PYO under 100 μM, after which Vmax leveled off
B12 |  | did not have measurable activity | 
B13 |  | did not have measurable activity | 
B14 |  | did not have measurable activity | 
B15 |  | did not have measurable activity | 
B16 |  |  | pH of optimal activity ([1]; buffers pH 5.5-10.0, PodA 3 μM, PYO 100 μM): 6; Effect of salts (NaCl and KCl) on activity ([1]; cystic fibrosis sputum range, 66 mM Na+, 15 mM K+): did not inhibit or enhance; Effect of higher glycerol concentrations on the activity increase ([1]; glycerol 5 to 20%): reversed this activity increase; Km [1, 3]: 372 µM; catalytic efficiency [1, 3]: 4.73±0.24×10^2 M^−1 s^−1; kcat [1, 3]: 0.176 ± 0.003 s⁻¹; Effect of slight increase in viscosity (ethylene glycol or glycerol 1% v/v) on activity ([1]; pH 6, PodA 3 μM, PYO 100 μM): enhanced; catalytic efficiency ([1]; protein from soluble fraction): 1.05±0.093×10^2 M^−1 s^−1; catalytic efficiency ([1]; protein purified from inclusion bodies, denatured and refolded): 1.14±0.25× 10^2 M^−1 s^−1
B17 |  |  | catalytic efficiency compared with PodA^WT [1]: slight increase in efficiency
B18 |  |  | catalytic efficiency compared with PodA^WT [1]: no change
